{
  "source": "patent US20070014720A1",
  "about": "(published 2007)",
  "binders": {"B1": {"name": "mAb 2.1.2 (ATCC Accession Number PTA-7328) (antibody, human IgG1, V domains shown)", "VH": "EVQLVQSGAEVKKPGESLKISCKGSGYSFTSYWIGWVRQMPGKGLEWMGIIYPGDSDTRYSPSFQGQVTISADKSISTAYLQWSSLKASDTAMYYCARQGDFWSGYGGMDVWGQGTTVTVSS", "VL": "DIVMTQTPHSSPVTLGQPASISCRSSQSLVSRDGNTYLSWLQQRPGQPPRLLIYKISNRFSGVPNRFSGSGAGTDFTLKISRVKAEDVGVYYCMQATQFPLTFGQGTRLEIK", "notes": "Human IgG1 kappa; also called 2.1.1; 50-001H2_1_1"}, "B2": {"name": "mAb 1.1.2 (ATCC Accession Number PTA-7329) (antibody, human IgG1, V domains shown)", "VH": "EVQLVQSGAEVKKPGESLKISCKGSGYSFTSYWIGWVRQMPGKGLEWMGIIYPGDSDTRYRPSFQGQVTISADKSITTAYLQWSSLKASDTAMYYCARHPSYGSGSPNFDYWGQGTLVTVSS", "VL": "not shown", "notes": "also called 50-001H1_1_2"}, "B3": {"name": "mAb 1.3.3 (antibody, V domains shown)", "VH": "B2 VH with R61S", "VL": "not shown", "notes": "Human IgG1 kappa"}, "B4": {"name": "mAb 1.5.3 (ATCC Accession Number PTA-7330) (antibody, human IgG1, V domains shown)", "VH": "B2 VH with R61S", "VL": "not shown", "notes": "Fully human IgG1 kappa; also called 50-001H1_5_3"}, "B5": {"name": "mAb 1.10.3.1 (antibody, human IgG1, V domains shown)", "VH": "EVQLVQSGAEVKKPGESLKISCKGSGYSFTSYWIGWVRQMPGKGLEWMGIIYPGDSDTRYSPSFQGQVTISADKSISTAYLQWSSLKASDTAMYYCARMGDFWSGYYTRGMDVWGQGTTVTVSS", "VL": "EIVMTQSPATLSVSPGERATLSCRASQSVSSNLAWYQQKPGQAPRLLISGASTRATGIPARFSGSGSGTEFTLTISSLQSEDFAVYYCHQYNDWSLTFGGGTKVEIK", "notes": "Human IgG1 kappa; also called 50-001H1_10_3_1"}, "B6": {"name": "mAb 1.13.2 (antibody, human IgG1, V domains shown)", "VH": "EVQLVQSGAEVKKPGESLKISCKGSGYSFTNYWIGWVRQMPGKGLEWMGIIYPGDSDTRYSPSFQGQVTISADKSISTAYLQWSSLKASDTAMYYCARQGDYYHYSGMDVWGQGTTVTVSS", "VL": "DVVMTQSPLSLSVTLGQPASISCRSSQSLVYNDGDTYLNWFQQRPGQSPRLLIYKVSNWDSGVPDRFSGSGSGTDFTLKVSRVEAEDVGVYYCMQGTHWPLTFGGGTKVEIK", "notes": "Human IgG1 kappa; also called 1.13.1; 50-001H1_13_1"}, "B7": {"name": "mAb 1.2.1 (antibody, human IgG1, V domains shown)", "VH": "B6 VH with N31S, Q99L, H104N, S106Y", "VL": "B1 VL with H9L, S31H, R32S, N35K, I56S, N65D, K84E, M94V, L101I", "notes": "Human IgG1 kappa; also called 1.2.1.1; 50-001H1_2_1_1"}, "B8": {"name": "mAb 1.9.2 (antibody, human IgG1, V domains shown)", "VH": "B1 VH with Q99H, G107Y, G108S, M109F, V111Y, T117L", "VL": "not shown"}},
  "note": "Substitutions are numbered along the chain they refer to.",
  "data": [
    {"molecular_target": "T1, human CD20 (human, UniProt P11836 1-297)", "T1 construct": "whole, on cells; In all assays CD20 stood on cells; also called CD20 antigen", "T1 sequence (looked up)": "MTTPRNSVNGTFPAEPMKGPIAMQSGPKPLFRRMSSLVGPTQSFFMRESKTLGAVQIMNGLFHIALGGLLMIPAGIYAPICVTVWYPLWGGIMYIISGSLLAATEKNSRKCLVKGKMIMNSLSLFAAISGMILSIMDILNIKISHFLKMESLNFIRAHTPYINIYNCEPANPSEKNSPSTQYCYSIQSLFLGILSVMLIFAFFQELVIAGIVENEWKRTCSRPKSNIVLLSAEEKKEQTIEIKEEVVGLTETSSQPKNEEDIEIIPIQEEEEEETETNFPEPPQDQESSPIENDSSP", "experiment": "FACS KD on SB cells expressing CD20 (GMF against mAb concentration, nonlinear fit)", "method": "The affinity of purified antibodies against CD20 (mAbs 1.1.2, 1.2.1, 2.1.2, 1.3.3, 1.5.3, 1.10.3.1, 1.13.2), Rituximab (positive control), and B1 was determined by FACS. Briefly, SB cells expressing CD20 were resuspended in FACS buffer (2% FBS, 0.05% NaN₃) at a concentration of approximately 5 million cells/mL. HSB cells were also resuspended in FACS buffer at a concentration of approximately 9 million cells/mL. Cells were kept on ice. Purified antibodies were serially diluted in filtered 1×PBS (2×) across 11 wells in 96-well plates. The twelfth well in each row contained buffer only. 1×PBS and cells were added to each mAb well such that the final volume was […] and each well contained approximately 375,000 cells. The final molecular concentration ranges for the mAbs were as follows:\nPlates were placed on a plate shaker for 3 hours at 4° C., then spun and washed 3× with PBS. 200 μL of 145 nM Cy5 goat α-human polyclonal antibody was added to each well, and 200 μL of 192 nM Cy5 goat α-mouse polyclonal antibody was added to the cells complexed with B1 antibody. Plates were then incubated for 40 minutes at 4° C., then spun and washed 3× with PBS.\nThe Geometric Mean Fluorescence (GMF) of 10,000 cells for each mAb concentration was determined using a FACSCalibur instrument. No significant nonspecific binding (no significant signal) was apparent from the HSB cells. In each row containing the SB cells, the signal from the twelfth well (containing buffer only) was subtracted from the signal from the first 11 wells. A nonlinear plot of GMF as a function of molecular mAb concentration was fit using Scientist software using the equation: […]", "units": {"Kd": "nM"}, "values": [
      {"binder": "B1", "Kd": 3.8},
      {"binder": "B2", "Kd": 11.1},
      {"binder": "B3", "Kd": 8.9},
      {"binder": "B4", "Kd": 9.1},
      {"binder": "B5", "Kd": 11.2},
      {"binder": "B6", "Kd": 23.6},
      {"binder": "B7", "Kd": 11.9}
    ]},
    {"molecular_target": "T1, human CD20", "experiment": "cell-based or functional assay", "units": {"% Lysis Daudi 0.001 µg/ml ADCC": "%", "% Lysis Daudi 1 µg/ml ADCC": "%", "% Lysis Raji 0.001 µg/ml ADCC": "%", "% Lysis Raji 1 µg/ml ADCC": "%", "% Lysis Ramos 0.001 µg/ml ADCC": "%", "% Lysis Ramos 1 µg/ml ADCC": "%", "EC50 µg/ml Daudi CDC": "µg/mL", "EC50 µg/ml Raji CDC": "µg/mL", "EC50 µg/ml Ramos Apoptosis Alamar Blue": "µg/mL", "EC50 µg/ml Ramos Apoptosis Annexin V": "µg/mL", "EC50 µg/ml Ramos Apoptosis Cell Titer Glo": "µg/mL", "EC50 µg/ml Ramos Apoptosis WST-1": "µg/mL", "EC50 µg/ml Ramos CDC": "µg/mL"}, "values": [
      {"binder": "B1", "% Lysis Daudi 0.001 µg/ml ADCC": 52, "% Lysis Daudi 1 µg/ml ADCC": 70, "% Lysis Raji 0.001 µg/ml ADCC": 7, "% Lysis Raji 1 µg/ml ADCC": 17, "% Lysis Ramos 0.001 µg/ml ADCC": 8, "% Lysis Ramos 1 µg/ml ADCC": 23, "EC50 µg/ml Daudi CDC": 0.51, "EC50 µg/ml Raji CDC": 0.3, "EC50 µg/ml Ramos Apoptosis Alamar Blue": 0.0329, "EC50 µg/ml Ramos Apoptosis Annexin V": 0.163, "EC50 µg/ml Ramos Apoptosis Cell Titer Glo": 0.0135, "EC50 µg/ml Ramos Apoptosis WST-1": 0.0067, "EC50 µg/ml Ramos CDC": 0.16},
      {"binder": "B8", "% Lysis Daudi 0.001 µg/ml ADCC": 19, "% Lysis Daudi 1 µg/ml ADCC": 74, "% Lysis Raji 0.001 µg/ml ADCC": 5, "% Lysis Raji 1 µg/ml ADCC": 17, "% Lysis Ramos 0.001 µg/ml ADCC": 3, "% Lysis Ramos 1 µg/ml ADCC": 40, "EC50 µg/ml Daudi CDC": "> 10", "EC50 µg/ml Raji CDC": 52.9, "EC50 µg/ml Ramos Apoptosis Cell Titer Glo": 0.528, "EC50 µg/ml Ramos CDC": "> 10"},
      {"binder": "B2", "% Lysis Daudi 0.001 µg/ml ADCC": 77, "% Lysis Daudi 1 µg/ml ADCC": 96, "% Lysis Raji 0.001 µg/ml ADCC": 12, "% Lysis Raji 1 µg/ml ADCC": 53, "% Lysis Ramos 0.001 µg/ml ADCC": 15, "% Lysis Ramos 1 µg/ml ADCC": 84, "EC50 µg/ml Daudi CDC": 0.8, "EC50 µg/ml Raji CDC": 0.4, "EC50 µg/ml Ramos Apoptosis Alamar Blue": 0.0481, "EC50 µg/ml Ramos Apoptosis Annexin V": 0.518, "EC50 µg/ml Ramos Apoptosis Cell Titer Glo": 0.041, "EC50 µg/ml Ramos Apoptosis WST-1": 0.0055, "EC50 µg/ml Ramos CDC": 0.24},
      {"binder": "B3", "% Lysis Daudi 0.001 µg/ml ADCC": 63, "% Lysis Daudi 1 µg/ml ADCC": 88, "% Lysis Raji 0.001 µg/ml ADCC": 9, "% Lysis Raji 1 µg/ml ADCC": 33, "% Lysis Ramos 0.001 µg/ml ADCC": 10, "% Lysis Ramos 1 µg/ml ADCC": 58, "EC50 µg/ml Daudi CDC": 1.91, "EC50 µg/ml Raji CDC": 0.22, "EC50 µg/ml Ramos Apoptosis Alamar Blue": 0.0485, "EC50 µg/ml Ramos Apoptosis Annexin V": 0.886, "EC50 µg/ml Ramos Apoptosis Cell Titer Glo": 0.332, "EC50 µg/ml Ramos Apoptosis WST-1": 0.0096, "EC50 µg/ml Ramos CDC": 0.23},
      {"binder": "B4", "% Lysis Daudi 0.001 µg/ml ADCC": 66, "% Lysis Daudi 1 µg/ml ADCC": 79, "% Lysis Raji 0.001 µg/ml ADCC": 10, "% Lysis Raji 1 µg/ml ADCC": 53, "% Lysis Ramos 0.001 µg/ml ADCC": 8, "% Lysis Ramos 1 µg/ml ADCC": 60, "EC50 µg/ml Daudi CDC": "~10", "EC50 µg/ml Raji CDC": 0.53, "EC50 µg/ml Ramos Apoptosis Alamar Blue": 0.08, "EC50 µg/ml Ramos Apoptosis Annexin V": 1.03, "EC50 µg/ml Ramos Apoptosis Cell Titer Glo": 0.191, "EC50 µg/ml Ramos Apoptosis WST-1": 0.037, "EC50 µg/ml Ramos CDC": 2.56},
      {"binder": "B6", "% Lysis Daudi 0.001 µg/ml ADCC": 24, "% Lysis Daudi 1 µg/ml ADCC": 74, "% Lysis Raji 0.001 µg/ml ADCC": 5, "% Lysis Raji 1 µg/ml ADCC": 21, "% Lysis Ramos 0.001 µg/ml ADCC": 4, "% Lysis Ramos 1 µg/ml ADCC": 33, "EC50 µg/ml Daudi CDC": "~10", "EC50 µg/ml Raji CDC": 3.54, "EC50 µg/ml Ramos Apoptosis Alamar Blue": 0.291, "EC50 µg/ml Ramos Apoptosis Annexin V": 2.97, "EC50 µg/ml Ramos Apoptosis Cell Titer Glo": 1.44, "EC50 µg/ml Ramos Apoptosis WST-1": 0.096, "EC50 µg/ml Ramos CDC": 6.82},
      {"binder": "B7", "% Lysis Daudi 0.001 µg/ml ADCC": 56, "% Lysis Daudi 1 µg/ml ADCC": 86, "% Lysis Raji 0.001 µg/ml ADCC": 8, "% Lysis Raji 1 µg/ml ADCC": 45, "% Lysis Ramos 0.001 µg/ml ADCC": 8, "% Lysis Ramos 1 µg/ml ADCC": 67, "EC50 µg/ml Daudi CDC": "> 10", "EC50 µg/ml Raji CDC": "> 10", "EC50 µg/ml Ramos Apoptosis Cell Titer Glo": 15.2, "EC50 µg/ml Ramos CDC": "> 10"}
    ]}
  ]
}
